Results on 2 molecules are retold here after publication PMC8042453 (The Journal of Biological Chemistry, 2021).

Experiment [1] concerns the target T1, Nucleolin construct R1234G (aa 285–710) (human, UniProt P19338 285-710). The experiment is described as follows: flow cytometry on cells. Background: A flow cytometer gives signals particle by particle.
Experiment [2] deals with T1, Nucleolin construct R1234G (aa 285–710). The experiment is described as follows: co-IP.

T1 sequence (P19338 285-710, stated change not applied): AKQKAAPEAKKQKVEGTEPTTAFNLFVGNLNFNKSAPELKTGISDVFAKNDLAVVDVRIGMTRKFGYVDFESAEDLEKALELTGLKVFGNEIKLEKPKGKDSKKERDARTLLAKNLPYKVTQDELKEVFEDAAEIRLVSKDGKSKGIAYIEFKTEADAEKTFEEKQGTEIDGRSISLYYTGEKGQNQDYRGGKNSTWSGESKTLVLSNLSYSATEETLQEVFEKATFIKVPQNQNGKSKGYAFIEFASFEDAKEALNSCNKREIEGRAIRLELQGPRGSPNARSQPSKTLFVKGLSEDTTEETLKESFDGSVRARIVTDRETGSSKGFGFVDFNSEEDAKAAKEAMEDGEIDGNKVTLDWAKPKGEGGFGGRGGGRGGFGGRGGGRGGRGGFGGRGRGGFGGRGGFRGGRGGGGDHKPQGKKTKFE

B1: GFP-C1QTNF4 (aa 17–329) (ligand)
chain: not shown
With B1, the binding result in experiment [1] is reported as “binds”.

B2: C1QTNF4 (aa 17–329, full-length) (ligand)
chain: not shown
With B2, in experiment [2], the binding result is recorded as “binds”.
